Positions count from the first letter of the chain named. Where “and” joins values, the source holds several entries; their conditions need not be identical. Identical values can stand only once.
Tests used:
[1] = molecular target: T1, cyno MAdCAM (cyno); assay: BLI Octet, AHC capture
T1 construct: also called cynomolgus monkey MAdCAM-1

[2] = molecular target: T2, Human MAdCAM (human, UniProt Q13477 19-317, limits assumed); assay: BLI Octet, AHC capture
T2 construct: also called huMAdCAM; human MAdCAM-1
T2 sequence (looked up): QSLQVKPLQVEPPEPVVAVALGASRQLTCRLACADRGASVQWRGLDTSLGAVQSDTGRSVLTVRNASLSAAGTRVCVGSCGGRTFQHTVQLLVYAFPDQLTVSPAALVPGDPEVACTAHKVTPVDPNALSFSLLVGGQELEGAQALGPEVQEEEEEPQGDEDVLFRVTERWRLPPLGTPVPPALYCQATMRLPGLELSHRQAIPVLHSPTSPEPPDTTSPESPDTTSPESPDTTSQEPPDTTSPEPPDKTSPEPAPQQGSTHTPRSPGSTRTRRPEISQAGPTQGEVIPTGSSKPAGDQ

[3] = molecular target: T3, Insulin (UniProt P01308 25-54; P01308 90-110); assay: ELISA on insulin-coated plate
T3 construct: Polyreactivity antigen; mature insulin has A and B chains; also called human insulin

B1: PRNT1 (antibody, human IgG1, kappa)
heavy: EVQLLESGGGLVQPGGSLRLSCAASGFTFSDFWMHWVRQAPGKGLEWISYISGDSGYTNYADSVKGRFTISRDNSKNTLYLQMNSLRAEDTAVYYCARDRPYYYYMDVWGKGTTVTVSSASTKGPSVFPLAPSSKSTSGGTAALGCLVKDYFPEPVTVSWNSGALTSGVHTFPAVLQSSGLYSLSSVVTVPSSSLGTQTYICNVNHKPSNTKVDKKVEPKSCDKTHTCPPCPAPEAAGAPSVFLFPPKPKDTLMISRTPEVTCVVVDVSHEDPEVKFNWYVDGVEVHNAKTKPREEQYNSTYRVVSVLTVLHQDWLNGKEYKCKVSNKALPAPIEKTISKAKGQPREPQVYTLPPSREEMTKNQVSLTCLVKGFYPSDIAVEWESNGQPENNYKTTPPVLDSDGSFFLYSKLTVDKSRWQQGNVFSCSVMHEALHNHYTQKSLSLSPGGGGGSAPTSSSTKKTQLQLEHLLLDLQMILNGINNYKNPKLTRMLTFKFYMPKKATELKHLQCLEEELKPLEEALNLAPSKNFHLRPRDLISDINVIVLELKGSETTFMCEYADETATIVEFINRWITFSQSIISTLT
light: DIQMTQSPSSLSASVGDRVTITCRASQSVSRSLAWYQQKPGKAPKLLIYAASSLQSGVPSRFSGSGSGTDFTLTISSLQPEDFATYYCQQYKSYPVTFGQGTKVEIKRTVAAPSVFIFPPSDEQLKSGTASVVCLLNNFYPREAKVQWKVDNALQSGNSQESVTEQDSKDSTYSLSSTLTLSKADYEKHKVYACEVTHQGLSSPVTKSFNRGEC
notes: also called parent PRNT1; parental molecule PRNT1
Kd [1]: 13 nM

B2: MIAB169 (antibody, human IgG1, kappa)
heavy: B1 heavy with Y105I
light: B1 light
notes: Y105I variant; also called MIAB169-CHO; MIAB169-HEK
Kd [2]: 266 nM and 340 nM | fold lower affinity than PRNT1 [2]: 10 fold | koff [2]: 0.0738 s⁻¹ | kon [2]: 278000 M⁻¹ s⁻¹ | Kd [1]: 153 nM | binding result [3]: no binding (tested: 100 nM)
